PMC12802541

Assays:
[1] = biological target: Rabbit skeletal actin (rabbit) (UniProt P68135); experiment: TIRF microscopy; 50 nM phosphorylated NM2 filaments added to anti-parallel actin arrays anchored by their barbed ends on patterned formin; MB150 (150 mM KCl, 5 mM MgCl2, 0.1 mM EGTA, 20 mM MOPS, pH 7.4), 1 mM ATP, 1 mM DTT, 0.6% methylcellulose, 30 °C
[2] = biological target: Rabbit skeletal actin (rabbit) (UniProt P68135)

| Substance | dwell time (lifetime of attachment) [1] [min] | fraction of tension sensor modules that are tensed (amplitude of the long lifetime component, global fit of FLIM) on patterned actin bundles [2] [%] |
| --- | --- | --- |
| Non-muscle myosin 2B, Halo-tagged, phosphorylated, pre-polymerized filaments (from UniProt P35580 1-1976; P60660 1-151; O14950 1-172) (complex) | > 15 | – |
| TsMod NM2A (non-muscle myosin 2A with an embedded FRET-based tension sensor module), RLC phosphorylated (from UniProt P35579 1-1960; P60660 1-151; O14950 1-172) (complex) | – | 80 |
